Laboratory results: publication PMC3139566 (Biochemistry, 2011)
Where no end group is shown, it is not given here. [ ]: non-standard residue; d: D form. pY = N[C@@H](Cc1ccc(OP(=O)(O)O)cc1)C(=O)O

T1: Fe65 N-term-WW-PID1-PID2 1-662 (human, UniProt O00213-2 1-662)
T1 sequence (looked up): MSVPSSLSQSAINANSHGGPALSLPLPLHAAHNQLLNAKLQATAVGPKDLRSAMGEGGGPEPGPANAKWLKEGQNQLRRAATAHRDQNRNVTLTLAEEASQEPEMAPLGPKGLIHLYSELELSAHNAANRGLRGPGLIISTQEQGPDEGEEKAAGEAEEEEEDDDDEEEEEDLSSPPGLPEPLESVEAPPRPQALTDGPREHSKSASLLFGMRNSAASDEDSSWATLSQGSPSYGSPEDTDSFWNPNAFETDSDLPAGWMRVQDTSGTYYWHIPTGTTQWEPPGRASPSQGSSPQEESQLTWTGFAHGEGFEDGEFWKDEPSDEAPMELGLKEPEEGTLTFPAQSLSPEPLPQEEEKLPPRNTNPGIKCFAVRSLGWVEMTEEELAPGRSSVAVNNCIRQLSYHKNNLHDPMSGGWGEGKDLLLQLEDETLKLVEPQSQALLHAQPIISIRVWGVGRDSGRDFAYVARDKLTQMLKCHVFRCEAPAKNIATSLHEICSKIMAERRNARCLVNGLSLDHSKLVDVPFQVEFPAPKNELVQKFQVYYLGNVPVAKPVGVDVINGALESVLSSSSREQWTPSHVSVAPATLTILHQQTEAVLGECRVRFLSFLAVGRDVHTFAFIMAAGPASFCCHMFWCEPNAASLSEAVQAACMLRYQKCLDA

T2: Fe65 WW-PID1-PID2 236-662 (human, UniProt O00213-2 236-662)
T2 sequence (looked up): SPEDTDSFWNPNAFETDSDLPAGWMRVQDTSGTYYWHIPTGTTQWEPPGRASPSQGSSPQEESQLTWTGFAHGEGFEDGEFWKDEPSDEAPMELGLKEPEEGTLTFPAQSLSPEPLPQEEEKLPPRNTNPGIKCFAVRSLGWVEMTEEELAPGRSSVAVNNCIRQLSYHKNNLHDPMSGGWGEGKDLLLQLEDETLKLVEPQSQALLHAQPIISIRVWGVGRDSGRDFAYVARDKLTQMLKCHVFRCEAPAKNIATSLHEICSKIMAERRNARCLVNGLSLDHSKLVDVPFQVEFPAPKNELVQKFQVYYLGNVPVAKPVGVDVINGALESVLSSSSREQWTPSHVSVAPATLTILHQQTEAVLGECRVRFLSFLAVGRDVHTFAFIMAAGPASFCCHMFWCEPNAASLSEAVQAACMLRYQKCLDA

T3: Fe65 WW-PID1 236-512 (human, UniProt O00213-2 236-512)
T3 sequence (looked up): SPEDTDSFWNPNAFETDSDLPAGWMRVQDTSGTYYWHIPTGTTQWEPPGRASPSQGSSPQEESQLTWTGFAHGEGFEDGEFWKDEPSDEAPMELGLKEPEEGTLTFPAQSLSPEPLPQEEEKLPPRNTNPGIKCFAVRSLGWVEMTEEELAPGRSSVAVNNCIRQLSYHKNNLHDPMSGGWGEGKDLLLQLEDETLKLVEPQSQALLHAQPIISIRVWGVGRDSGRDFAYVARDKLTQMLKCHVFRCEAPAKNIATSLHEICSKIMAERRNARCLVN


Columns and labels:
[1] = biological target: T1, Fe65 N-term-WW-PID1-PID2 1-662; test: SPR
[2] = biological target: T2, Fe65 WW-PID1-PID2 236-662; test: fluorescence polarisation
Fe65 WW-PID1 236-512 = biological target: T3, Fe65 WW-PID1 236-512; test: fluorescence polarisation

Row | Binder | Kd [1] | Kd [2] | Kd (Fe65 WW-PID1 236-512)
1 | APP Intracellular Domain (AICD, residues 649-695), biotinylated at the N-terminal cysteine (domain or fragment, biotin (biotin-maleimide) on the N-terminal cysteine) GSKLCKKKQYTSIHHGVVEVDAAVTPEERHLSKMQQNGYENPTYKFFEQMQN | 2500 ± 350 nM | – | –
2 | LRP4488 phosphorylated at Y4507 (pYLRP4488) labeled with Oregon Green 488 (domain or fragment, human) C(Oregon Green 488 maleimide)LDADFALDPDKPTNFTNPV[pY]ATLYMGGHGSRHSLASTDEKRELLGRGPEDEIGDPLA | – | 48.3 µM | 66.7 µM
